Laboratory results from paper PMC6642083, “Structural basis of tubulin detyrosination by VASH2/SVBP heterodimer” (Nature Communications, 2019).

Target: T1, VASH2_(1–355)(C158A)/SVBP_(1–66) (Mus musculus, UniProt Q8C5G2 1-355; Q99LQ4 1-66, C158A)
T1 construct: SVBP, Mus musculus, residues 1-66; also called VASH2(C158A)/SVBP; source: Sf9, co-expressed (baculovirus), purified (Ni-NTA, heparin, SEC); not shown: His-tag, N-terminal, cleaved
Assay: crystal structure; tail peptide (1 mM) co-crystallized with VASH2 1–355(C158A)/SVBP 1–66 (5 mg/ml), 2.5 Å; 0.1 M HEPES pH 7.0, 1 M (NH4)2SO4, 1.105 M KCl, 18 °C
Conditions: both partners purified

T1 sequence (Q8C5G2 whole entry C158A, chain 1 of 2, the tested form may be a part): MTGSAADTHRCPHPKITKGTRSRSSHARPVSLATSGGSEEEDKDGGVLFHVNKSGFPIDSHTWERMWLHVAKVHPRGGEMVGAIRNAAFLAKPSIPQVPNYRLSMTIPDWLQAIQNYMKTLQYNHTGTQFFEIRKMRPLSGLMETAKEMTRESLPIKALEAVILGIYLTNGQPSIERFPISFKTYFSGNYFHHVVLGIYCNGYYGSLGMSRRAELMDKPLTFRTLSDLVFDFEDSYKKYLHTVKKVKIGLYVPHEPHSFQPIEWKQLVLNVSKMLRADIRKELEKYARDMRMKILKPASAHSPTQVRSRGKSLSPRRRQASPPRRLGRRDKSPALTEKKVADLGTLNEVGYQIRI
T1 sequence (Q99LQ4 whole entry, chain 2 of 2, the tested form may be a part): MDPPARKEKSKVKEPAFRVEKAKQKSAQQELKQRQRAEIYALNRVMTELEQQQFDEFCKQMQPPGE

B1: α-tubulin C-terminal tail peptide (VDSVEGEGEEEGEEY) (peptide)
peptide: VDSVEGEGEEEGEEY
notes: C-terminal tail of α-tubulin; Only the last five residues (EGEEY) were built in the crystal structure; also called tubulin tail; full-length tail; source: synthetic peptide (Biosynthesis)
B1: binds.
